We go through 15 molecules from US20220025008A1 (FAPON BIOTECH, published 2022).

B1: Mutation 1-18 (antibody, V domains shown)
VH: QVRLQESGPSQVKPAQTLSLTCAISGFSITTYYIDWVRHTPGKPPEWLAQMTKDGNAVHNPTVRSRLSITRDTSKSQVFLKLTGVTTEDTAVYYCVRGIIDWGPGLLVTVSS
VL: QAVLTQPSSVSRSLGQTVSITCSGSSDNVGFGDYINWFQLIPGSAPKTLIFGATSRIRGVPDRFSGSRSGNTATLTINSLQAEDEADYYCGSPNSRNYVFGSGTRLTVLS
B2: Mutation 1-44 (antibody, V domains shown)
VH: B1 VH with I29V, I34V, V63L, I99L
VL: B1 VL with I35V, T54S, I57V, P93A
B3: Mutation 1-40 (antibody, V domains shown)
VH: B1 VH with I29L, I34L, N60Q, I99V
VL: B1 VL with I35L, T54Y, I57L
B4: Mutation 1-46 (antibody, V domains shown)
VH: B1 VH with I34L, V63I, I99V
VL: QAVLTQPSSVSRSLGQTVSITCSGSSDQVGFGDYLNWFQLIPGSAPKTLIFGASSRLRGVPDRFSGSRSGNTATLTINSLQAEDEADYYCGSPNSRGGYVFGSGTRLTVLS
B5: Mutation 1-30 (antibody, V domains shown)
VH: B1 VH with I29L
VL: B1 VL
B6: Mutation 1-50 (antibody, V domains shown)
VH: B1 VH with I29L, I34V, N60Q, V63L, I99L
VL: B4 VL with L35I, S54T, L57V, P93A
B7: Mutation 1-41 (antibody, V domains shown)
VH: B1 VH with I29V
VL: B1 VL with T54Y, I57V, P93G
B8: Mutation 1-48 (antibody, V domains shown)
VH: B1 VH with I29L, N60Q, V63I
VL: B4 VL with L35V, S54T, L57I
B9: Mutation 1-19 (antibody)
heavy: QVRLQESGPSQVKPAQTLSLTCAISGFSITTYYLDWVRHTPGKPPEWLAQMTKDGNAVHQPTVRSRLSITRDTSKSQVFLKLTGVTTEDTAVYYCVRGIIDFGPGLLVTVSSASTTPPKVYPLTSCCGDTSSSIVTLGCLVSSYMPEPVTVTWNSGALTSGVHTFPAILQSSGLYSLSSVVTVPASTSGAQTFICNVAHPASSTKVDKRVEPGCPDPCKHCRCPPPELPGGPSVFIFPPKPKDTLTISGTPEVTCVVVDVGQDDPEVQFSWFVDNVEVRTARTKPREEQFNSTFRVVSALPIQHQDWTGGKEFKCKVHNEGLPAPIVRTISRTKGQAREPQVYVLAPPQEELSKSTLSVTCLVTGFYPDYIAVEWQKNGQPESEDKYGTTTSQLDADGSYFLYSRLRVDKNSWQEGDTYACVVMHEALHNHYTQKSISKPPGK
light: QAVLTQPSSVSRSLGQTVSITCSGSSDNVGFGDYLNWFQLIPGSAPKTLIFGATSRLRGVPDRFSGSRSGNTATLTINSLQAEDEADYYCGSGNSRNYVFGSGTRLTVLSQPKSAPSVTLFPPSKEELDTNKATVVCLISDFYPGSVNVVWKADGSTINQNVKTTQASKQSNSKYAASSYLTLTGSEWKSKSSYTCEVTHEGSTVTKTVKPSECS
B10: Mutation 1-45 (antibody)
heavy: B9 heavy with L34I, V63L, I99L
light: QAVLTQPSSVSRSLGQTVSITCSGSSDQVGFGDYINWFQLIPGSAPKTLIFGASSRIRGVPDRFSGSRSGNTATLTINSLQAEDEADYYCGSPNSRGGYVFGSGTRLTVLSQPKSAPSVTLFPPSKEELDTNKATVVCLISDFYPGSVNVVWKADGSTINQNVKTTQASKQSNSKYAASSYLTLTGSEWKSKSSYTCEVTHEGSTVTKTVKPSECS
B11: Mutation 1-43 (antibody)
heavy: B9 heavy with I29V
light: B10 light with Q28N, I35L, I57L, P93A
B12: Mutation 1-23 (antibody)
heavy: B9 heavy with I29L, L34V, V63I, I99V
light: B10 light with I35V, S54Y, I57V
B13: Mutation 1-47 (antibody)
heavy: B9 heavy with L34V, V63I, I99V
light: B9 light with N28Q, L35V, T54S, L57V, G93P
B14: Mutation 1-35 (antibody)
heavy: B9 heavy with I29V, L34V, V63I, I99V
light: B10 light with I35V, S54Y, I57V
B15: Mutation 1-29 (antibody)
heavy: B9 heavy with L34V, Q60N, I99V
light: B9 light with L35I, T54S, L57V

Where a chain is given by its changes, count along the chain named.

This assay addresses T1, Recombinant NT antigen (N-terminal pro-brain natriuretic peptide, NT-proBNP) (human, UniProt P16860 27-102).
T1 construct: domain: N-terminal pro-brain natriuretic peptide (NT-proBNP); also called recombinant NT protein; N-terminal pro-B-type natriuretic peptide
T1 sequence (looked up): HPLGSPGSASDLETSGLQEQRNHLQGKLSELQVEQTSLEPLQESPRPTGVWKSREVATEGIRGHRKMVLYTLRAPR
Put plainly: indirect ELISA, KD calculated from half-max OD at 4 coating concentrations. The method, boiled down:
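Plates coated overnight at 4 °C with recombinant NT antigen at 3, 1.5, 0.75 or 0.375 μg/ml, blocked with 20% BSA. Antibody, 2-fold dilutions from 1000 to 0.977 ng/ml, was incubated 30 min at 37 °C, then detected with HRP anti-IgG, OD450/630. KD was derived from half-max OD across coating levels.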
With B1, the Kd (as a rule, the free concentration of one partner at which half of the binding sites on the other are occupied at equilibrium, for simple one-to-one binding) is 1.73 nM.

On to B2, for which the Kd was 1.26 nM.

As to B3, the Kd was 3.47 nM.

As for B4, the Kd was 3.49 nM.

For the molecule B5, the Kd is 2.66 nM.

Turning to B6, the Kd is 2.16 nM.

For B7, the Kd was 2.82 nM.

Regarding B8, the Kd is 2.02 nM.

In the case of B9, the Kd is 1.51 nM.

B10: the Kd was 1.53 nM.

Turning to B11, the Kd is 2.93 nM.

Consider B12, for which the Kd was 0.81 nM.

As to B13, the Kd is 2.79 nM.

For the molecule B14, the Kd was 1.51 nM.

Regarding B15, the Kd is 1.49 nM.
